Results: patent US20240181007A1, “COMPOSITIONS AND METHODS FOR TREATING PULMONARY HYPERTENSION” (Acceleron Pharma Inc., priority 2021, published 2024)

Legend:
[1] = Muscle-building activity in vivo; details: material from CHO, HEK293 and COS cells; variability in potency was observed
activin A [2] = target: T1, activin A (UniProt P08476 311-426); assay: SPR (Biacore), 37 C
T1 construct: Soluble ligand injected in SPR or added in the reporter assay
T1 sequence (looked up): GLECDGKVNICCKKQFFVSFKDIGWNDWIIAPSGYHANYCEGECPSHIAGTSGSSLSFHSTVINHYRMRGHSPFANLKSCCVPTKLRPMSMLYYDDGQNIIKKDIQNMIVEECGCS
Experimental: (§1) A Biacore™-based binding assay was used to compare the ligand binding kinetics of an ActRIIB-Fc:ActRIIB(L79E)-Fc heterodimer with those of unmodified ActRIIB-Fc homodimer. Fusion proteins were captured onto the system using an anti-Fc antibody. Ligands were then injected and allowed to flow over the captured receptor protein at 37° C. Results are summarized in the table below, in which ligand off-rates (kd) most indicative of effective ligand traps are denoted in bold.

BMP10 [3] = target: T2, BMP10 (UniProt O95393 317-424); assay: SPR (Biacore), 37 C
T2 sequence (looked up): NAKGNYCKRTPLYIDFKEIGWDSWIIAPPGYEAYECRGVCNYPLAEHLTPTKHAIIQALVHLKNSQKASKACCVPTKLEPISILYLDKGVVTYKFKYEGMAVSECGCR
Experimental: as §1

activin B [4] = target: T3, activin B (UniProt P09529 293-407); assay: SPR (Biacore), fusion protein captured by anti-Fc antibody, ligand injected, 37 C
T3 sequence (looked up): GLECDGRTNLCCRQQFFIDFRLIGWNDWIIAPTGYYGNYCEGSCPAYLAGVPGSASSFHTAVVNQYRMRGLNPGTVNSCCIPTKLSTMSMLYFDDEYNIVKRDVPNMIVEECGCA
Experimental: as §1

BMP9 [5] = target: T4, BMP9 (UniProt Q9UK05 320-429); assay: as above
T4 sequence (looked up): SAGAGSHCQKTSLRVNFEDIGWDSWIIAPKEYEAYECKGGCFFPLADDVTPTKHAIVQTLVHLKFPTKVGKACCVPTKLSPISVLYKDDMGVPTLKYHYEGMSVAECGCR
Experimental: as §1

GDF11 [6] = target: T5, GDF11 (UniProt O95390 299-407); assay: as above
T5 construct: also called Growth and differentiation factor-11; BMP11
T5 sequence (looked up): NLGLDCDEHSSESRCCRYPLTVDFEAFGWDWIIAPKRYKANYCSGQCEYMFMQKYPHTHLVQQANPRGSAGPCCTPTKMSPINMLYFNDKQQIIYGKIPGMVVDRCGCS
Experimental: as §1

GDF3 [7] = target: T6, GDF3 (UniProt Q9NR23 251-364); assay: as above
T6 sequence (looked up): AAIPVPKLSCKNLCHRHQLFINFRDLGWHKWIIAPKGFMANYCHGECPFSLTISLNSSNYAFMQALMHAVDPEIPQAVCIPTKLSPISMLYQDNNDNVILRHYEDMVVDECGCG
Experimental: as §1

BMP6 [8] = target: T7, BMP6 (UniProt P22004 382-513, limits assumed); assay: as above
T7 sequence (looked up): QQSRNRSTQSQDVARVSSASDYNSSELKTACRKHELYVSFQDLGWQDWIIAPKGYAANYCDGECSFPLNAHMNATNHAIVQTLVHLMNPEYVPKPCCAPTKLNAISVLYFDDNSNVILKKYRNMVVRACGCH
Experimental: as §1

activin A [9] = target: T1, activin A; assay: as above
Experimental: as §1

BMP10 [10] = target: T2, BMP10; assay: as above
Experimental: as §1

GDF8 [11] = target: T8, GDF8 (UniProt O14793 267-375); assay: as above
T8 construct: also called Growth and differentiation factor-8; myostatin
T8 sequence (looked up): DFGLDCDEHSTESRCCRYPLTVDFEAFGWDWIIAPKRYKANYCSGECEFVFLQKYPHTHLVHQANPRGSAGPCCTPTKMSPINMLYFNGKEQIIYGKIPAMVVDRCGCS
Experimental: as §1

BMP10 [12] = target: T9, BMP10 (Homo sapiens, UniProt O95393); assay: Biacore-based binding assay (surface plasmon resonance), BMP10
T9 sequence (O95393 317-424): T2 sequence (looked up)
Experimental: (§2) To determine ligand binding profiles of variant ActRIIB-Fc homodimers, a Biacore™-based binding assay was used to compare ligand binding kinetics of certain variant ActRIIB-Fc polypeptides. ActRIIB-Fc polypeptides to be tested were independently captured onto the system using an anti-Fc antibody. Ligands were then injected and allowed to flow over the captured receptor protein. ActRIIB-G1Fc was used as the control polypeptide.
as §1

GDF3 [13] = target: T10, GDF3 (Homo sapiens, UniProt Q9NR23); assay: Biacore-based binding assay (surface plasmon resonance), GDF3; details: 37° C., capture by anti-Fc antibody
T10 sequence (Q9NR23 251-364): T6 sequence (looked up)
Experimental: as §1

BMP6 [14] = target: T11, BMP6 (Homo sapiens, UniProt P22004); assay: Biacore-based binding assay (surface plasmon resonance), BMP6
T11 sequence (P22004 375-513): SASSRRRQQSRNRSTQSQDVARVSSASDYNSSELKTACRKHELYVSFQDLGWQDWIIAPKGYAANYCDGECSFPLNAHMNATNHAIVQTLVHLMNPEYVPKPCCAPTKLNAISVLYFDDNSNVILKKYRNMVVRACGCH
Experimental: as §1

Activin B [15] = target: T12, Activin B (Homo sapiens, UniProt P09529); assay: Biacore-based binding assay (surface plasmon resonance), activin B
T12 sequence (P09529 293-407): T3 sequence (looked up)
Experimental: as §2, §1

GDF8 [16] = target: T13, GDF8 (Homo sapiens, UniProt O14793); assay: Biacore-based binding assay (surface plasmon resonance), GDF8
T13 sequence (O14793 267-375): T8 sequence (looked up)
Experimental: as §2, §1

BMP9 [17] = target: T14, BMP9 (Homo sapiens, UniProt Q9UK05); assay: Biacore-based binding assay (surface plasmon resonance), BMP9
T14 sequence (Q9UK05 320-429): T4 sequence (looked up)
Summary of the method: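 Fc-fused ActRIIB variants (homodimers, or an ActRIIB-Fc:ActRIIB(L79E)-Fc heterodimer) were captured via anti-Fc antibody, and ligands were injected over the captured receptor to measure binding kinetics by SPR. ActRIIB-G1Fc or unmodified ActRIIB-Fc homodimer served as comparator. Heterodimer runs were at 37° C, with off-rates (kd) reported.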

Activin A [18] = target: T15, Activin A (Homo sapiens, UniProt P08476); assay: Biacore-based binding assay (surface plasmon resonance), activin A
T15 sequence (P08476 311-426): T1 sequence (looked up)
Experimental: as §2
(§3) To determine ligand binding profiles of variant ActRIIB-Fc homodimers, a Biacore™-based binding assay was used to compare ligand binding kinetics of certain variant ActRIIB-Fc polypeptides. ActRIIB-Fc polypeptides to be tested were independently captured onto the system using an anti-Fc antibody. Ligands were then injected and allowed to flow over the captured receptor protein.
as §1

GDF11 [19] = target: T16, GDF11 (Homo sapiens, UniProt O95390); assay: Biacore-based binding assay (surface plasmon resonance), GDF11
T16 sequence (O95390 299-407): T5 sequence (looked up)
Experimental: as §2, §3, §1

[20] = 37° C., capture by anti-Fc antibody
[21] = SPR 37° C., compared to ActRIIB-G1Fc / ActRIIB-Fc homodimer
[22] = 37° C., capture by anti-Fc antibody, Transient*: indeterminate due to transient nature of interaction

ActRIIB-G1Fc: extracellular domain of human ActRIIB fused to a human G1Fc domain with a three-glycine linker; SEQ ID NO: 5
muscle-building activity in vivo [1]: muscle-building activity in vivo

B1: ActRIIB-Fc:ActRIIB(L79E)-Fc heterodimer (Fc fusion)
chain 1: GRGEAETRECIYYNANWELERTNQSGLERCEGEQDKRLHCYASWRNSSGTIELVKKGCWEDDFNCYDRQECVATEENPQVYFCCCEGNFCNERFTHLPEAGGPEVTYEPPPTAPTGGGTHTCPPCPAPELLGGPSVFLFPPKPKDTLMISRTPEVTCVVVDVSHEDPEVKFNWYVDGVEVHNAKTKPREEQYNSTYRVVSVLTVLHQDWLNGKEYKCKVSNKALPAPIEKTISKAKGQPREPQVYTLPPSREEMTKNQVSLTCLVKGFYPSDIAVEWESNGQPENNYDTTPPVLDSDGSFFLYSDLTVDKSRWQQGNVFSCSVMHEALHNHYTQKSLSLSPG
chain 2: GRGEAETRECIYYNANWELERTNQSGLERCEGEQDKRLHCYASWRNSSGTIELVKKGCWLDDFNCYDRQECVATEENPQVYFCCCEGNFCNERFTHLPEAGGPEVTYEPPPTAPTGGGTHTCPPCPAPELLGGPSVFLFPPKPKDTLMISRTPEVTCVVVDVSHEDPEVKFNWYVDGVEVHNAKTKPREEQYNSTYRVVSVLTVLHQDWLNGKEYKCKVSNKALPAPIEKTISKAKGQPREPQVYTLPPSRKEMTKNQVSLTCLVKGFYPSDIAVEWESNGQPENNYKTTPPVLKSDGSFFLYSKLTVDKSRWQQGNVFSCSVMHEALHNHYTQKSLSLSPGK
notes: The ActRIIB extracellular domains and linkers are the same in both pairs; also called ActRIIB-Fc:ActRIIB(L79E)-Fc heteromer
fold faster off-rate compared to ActRIIB-Fc homodimer (activin A [2]): ~10 fold
fold faster off-rate compared to ActRIIB-Fc homodimer (BMP10 [3]): ~10 fold
Kd (activin B [4]): 0.025 nM
koff (activin B [4]): 0.00021 s⁻¹
kon (activin B [4]): 8.3e+06 M⁻¹ s⁻¹
Kd (BMP9 [5]): > 2.8 nM
Kd (GDF11 [6]): 0.009 nM
koff (GDF11 [6]): 0.00036 s⁻¹
kon (GDF11 [6]): 4e+07 M⁻¹ s⁻¹
Kd (GDF3 [7]): 10 nM
koff (GDF3 [7]): 0.0059 s⁻¹
kon (GDF3 [7]): 580000 M⁻¹ s⁻¹
Kd (BMP6 [8]): 0.056 nM
koff (BMP6 [8]): 0.018 s⁻¹
kon (BMP6 [8]): 3.3e+08 M⁻¹ s⁻¹
Kd (activin A [9]): 0.17 nM
koff (activin A [9]): 0.0015 s⁻¹
kon (activin A [9]): 8.8e+06 M⁻¹ s⁻¹
Kd (BMP10 [10]): 0.042 nM
koff (BMP10 [10]): 0.002 s⁻¹
kon (BMP10 [10]): 4.8e+07 M⁻¹ s⁻¹
Kd (GDF8 [11]): 0.15 nM
koff (GDF8 [11]): 0.0005 s⁻¹
kon (GDF8 [11]): 3.4e+06 M⁻¹ s⁻¹

B2: ActRIIB-Fc:ActRIIB(L79E)-Fc heterodimer: heteromeric complex of unmodified human ActRIIB-Fc and ActRIIB(L79E)-Fc, each fused to a G1Fc domain with linker (protein)
chain 1: B1 chain 1
chain 2: B1 chain 2
ka BMP10 (BMP10 [12]; [20]): 4.8e+07 M⁻¹ s⁻¹
kd BMP10 (BMP10 [12]; [20]): 0.002 s⁻¹
off-rate for BMP10 compared to ActRIIB-Fc homodimer (BMP10 [12]; SPR 37° C.): approximately ten-fold faster off-rates
ka GDF3 (GDF3 [13]): 580000 M⁻¹ s⁻¹
kd GDF3 (GDF3 [13]): 0.0059 s⁻¹
ka BMP6 (BMP6 [14]; [20]): 3.3e+08 M⁻¹ s⁻¹
kd BMP6 (BMP6 [14]; [20]): 0.018 s⁻¹
BMP6 binding compared to ActRIIB-Fc homodimer (in words) (BMP6 [14]; SPR 37° C.): largely retained high-affinity binding
ka Activin B (Activin B [15]; [20]): 8.3e+06 M⁻¹ s⁻¹
kd Activin B (Activin B [15]; [20]): 0.00021 s⁻¹
affinity for activin B compared to unmodified ActRIIB-Fc (in words) (Activin B [15]; [21]): largely retained high-affinity binding
ka GDF8 (GDF8 [16]; [20]): 3.4e+06 M⁻¹ s⁻¹
kd GDF8 (GDF8 [16]; [20]): 0.0005 s⁻¹
GDF8 binding compared to unmodified ActRIIB-Fc (in words) (GDF8 [16]; [21]): largely retained high-affinity binding
ka BMP9 (BMP9 [17]; [22]): Transient*
kd BMP9 (BMP9 [17]; [22]): Transient*
binding to BMP9 compared to unmodified ActRIIB-Fc (in words) (BMP9 [17]; [21]): even greater reduction in the strength of binding to BMP9
ka Activin A (Activin A [18]; [20]): 8.8e+06 M⁻¹ s⁻¹
kd Activin A (Activin A [18]; [20]): 0.0015 s⁻¹
off-rate for activin A compared to ActRIIB-Fc homodimer (Activin A [18]; SPR 37° C.): approximately ten-fold faster off-rates
ka GDF11 (GDF11 [19]; [20]): 4e+07 M⁻¹ s⁻¹
kd GDF11 (GDF11 [19]; [20]): 0.00036 s⁻¹
GDF11 binding compared to unmodified ActRIIB-Fc (in words) (GDF11 [19]; [21]): largely retained high-affinity binding
